Source: paper PMC12102336

Experiments:
ALX4 R218Q [1] = target: T1, ALX4 R218Q (Mus musculus (region identical to human), UniProt Q9H161 209-274, R218Q); assay: ITC
ALX4 R218Q [2] = target: T1, ALX4 R218Q; assay: EMSA
ALX4 R215A;R216A = ALX4 R215A;R216A (Mus musculus (region identical to human), UniProt Q9H161 209-274, R215A;R216A); assay: EMSA
ALX4 R216A = ALX4 R216A (Mus musculus (region identical to human), UniProt Q9H161 209-274, R216A); assay: EMSA
ALX4 R215A = ALX4 R215A (Mus musculus (region identical to human), UniProt Q9H161 209-274, R215A); assay: EMSA
ALX4 R215A, sequence (Q9H161 209-274 R215A): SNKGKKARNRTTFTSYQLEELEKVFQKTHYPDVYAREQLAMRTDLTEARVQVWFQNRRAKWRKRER

ALX4 R216G = ALX4 R216G (Mus musculus (region identical to human), UniProt Q9H161 209-274, R216G); assay: EMSA
ALX4 R216G, sequence (Q9H161 209-274 R216G): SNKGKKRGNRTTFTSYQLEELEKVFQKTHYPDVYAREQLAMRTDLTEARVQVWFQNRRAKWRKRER

ALX4 Q225E = ALX4 Q225E (Mus musculus (region identical to human), UniProt Q9H161 209-274, Q225E); assay: EMSA
ALX4 Q225E, sequence (Q9H161 209-274 Q225E): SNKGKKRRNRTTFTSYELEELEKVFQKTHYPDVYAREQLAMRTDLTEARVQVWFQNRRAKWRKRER

[3] = target: ALX4 169-303;ALX4 HD (209-274) (Mus musculus (region identical to …, UniProt Q9H161;Q9H161 169-303;209-274, |)); assay: EMSA
ALX4 169-303;ALX4 HD (209-274) (Mus musculus, sequence (Q9H161 169-303, chain 1 of 2): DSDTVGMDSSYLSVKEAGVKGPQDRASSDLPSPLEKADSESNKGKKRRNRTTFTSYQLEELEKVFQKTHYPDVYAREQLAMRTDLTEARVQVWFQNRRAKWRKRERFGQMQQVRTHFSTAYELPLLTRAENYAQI
ALX4 169-303;ALX4 HD (209-274) (Mus musculus, sequence (Q9H161 209-274, chain 2 of 2): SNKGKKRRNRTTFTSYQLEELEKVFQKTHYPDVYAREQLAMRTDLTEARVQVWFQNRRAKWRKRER

ALX4 169-303;ALX4 R272P = ALX4 169-303;ALX4 R272P (Mus musculus (region identical to …, UniProt Q9H161;Q9H161 169-303;209-274, |R272P)); assay: EMSA
ALX4 169-303;ALX4 R272P (Mus musculus, sequence (Q9H161 169-303, stated change not applied, chain 1 of 2): as the sequence (Q9H161 169-303, chain 1 of 2) above
ALX4 169-303;ALX4 R272P (Mus musculus, sequence (Q9H161 209-274 R272P, chain 2 of 2): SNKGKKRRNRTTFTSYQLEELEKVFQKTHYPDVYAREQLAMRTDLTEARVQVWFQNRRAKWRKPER

ALX4 169-303;ALX4 K211E = ALX4 169-303;ALX4 K211E (Mus musculus (region identical to …, UniProt Q9H161;Q9H161 169-303;209-274, |K211E)); assay: EMSA
ALX4 169-303;ALX4 K211E (Mus musculus, sequence (Q9H161 169-303, stated change not applied, chain 1 of 2): as the sequence (Q9H161 169-303, chain 1 of 2) above
ALX4 169-303;ALX4 K211E (Mus musculus, sequence (Q9H161 209-274 K211E, chain 2 of 2): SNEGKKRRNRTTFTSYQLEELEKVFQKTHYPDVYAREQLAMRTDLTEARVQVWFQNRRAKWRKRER

ALX4 R272P = ALX4 R272P (Mus musculus (region identical to human), UniProt Q9H161 209-274, R272P); assay: EMSA
ALX4 R272P, sequence (Q9H161 209-274 R272P): as the sequence (Q9H161 209-274 R272P, chain 2 of 2) above

ALX4 K211E = ALX4 K211E (Mus musculus (region identical to human), UniProt Q9H161 209-274, K211E); assay: EMSA
ALX4 K211E, sequence (Q9H161 209-274 K211E): as the sequence (Q9H161 209-274 K211E, chain 2 of 2) above

T1 sequence (Q9H161 209-274 R218Q): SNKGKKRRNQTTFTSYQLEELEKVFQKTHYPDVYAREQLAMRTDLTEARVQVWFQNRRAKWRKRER
ALX4 R216A, sequence (Q9H161 209-274 R216A): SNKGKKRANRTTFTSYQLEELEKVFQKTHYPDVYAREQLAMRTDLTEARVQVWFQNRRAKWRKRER
ALX4 R215A;R216A, sequence (Q9H161 209-274 R215A/R216A): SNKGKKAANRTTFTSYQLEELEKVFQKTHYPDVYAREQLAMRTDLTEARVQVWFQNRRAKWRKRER

| Binder | binding result (ALX4 R218Q [1]) | binding result (ALX4 R218Q [2]) | binding signal (ALX4 R215A;R216A) | binding signal (ALX4 R216A) | binding signal (ALX4 R215A) | binding signal (ALX4 R216G) | binding signal (ALX4 Q225E) | binding result [3] | binding result (ALX4 169-303;ALX4 R272P) | binding result (ALX4 169-303;ALX4 K211E) | binding result (ALX4 R272P) | binding result (ALX4 K211E) |
| --- | --- | --- | --- | --- | --- | --- | --- | --- | --- | --- | --- | --- |
| 14mer ITC duplex (dsDNA) DNA 1: CGCTAATTAGCTCG DNA 2: CGAGCTAATTAGCG | no binding |  |  |  |  |  |  |  |  |  |  |  |
| P3 EMSA probe (dsDNA) DNA 1: TGTGTCTTAATTAGATTAACGCACTTGATAGTGCGGGCGTGGCT DNA 2: AGCCACGCCCGCACTATCAAGTGCGTTAATCTAATTAAGACACA |  | no binding | ~20 fold reduction of Tau vs WT | ~10 fold reduction of Tau vs WT | ~5 fold reduction of Tau vs WT | ~10 fold reduction of Tau vs WT | ~2 fold reduction of Tau vs WT | binds | binds | binds | binds | binds |
